# Positions count from the first letter of the chain named. Numbers in names are those of the source.
# B1: FtsZ from E. coli (wild type, unlabeled) (natural protein, UniProt P0A9A6 1-383, looked up)
# chain: MFEPMELTNDAVIKVIGVGGGGGNAVEHMVRERIEGVEFFAVNTDAQALRKTAVGQTIQIGSGITKGLGAGANPEVGRNAADEDRDALRAALEGADMVFIAAGMGGGTGTGAAPVVAEVAKDLGILTVAVVTKPFNFEGKKRMAFAEQGITELSKHVDSLITIPNDKLLKVLGRGISLLDAFGAANDVLKGAVQGIAELITRPGLMNVDFADVRTVMSEMGYAMMGSGVASGEDRAEEAAEMAISSPLLEDIDLSGARGVLVNITAGFDLRLDEFETVGNTIRAFASDNATVVIGTSLDPDMNDELRVTVVATGIGMDKRPEITLVTNKQVQQPVMDRYQQHGMAPLTQEQKPVAKVVNDNAPQTAKEPDYLDIPAFLRKQAD
# notes: Cell division protein FtsZ, E. coli; assembles into polymers with GTP, GDP or GMPCPP; also called FtsZ-GTP; FtsZ-GDP; source: over-expressed from plasmid pET11b, purified (30% saturated ammonium sulfate, source Q 10/10 column)
# B2: FtsZ T151C/Y222W labeled with ATTO-655-maleimide (natural protein, E. coli, UniProt P0A9A6 1-383, looked up)
# chain: B1 chain with T151C, Y222W
# modifications: labeled with ATTO-655-maleimide
# notes: Cell division protein FtsZ, E. coli, double mutant T151C/Y222W; Used diluted with a 9-fold excess of unlabeled wild-type FtsZ; also called FtsZY222W/T151C; labeled FtsZ; source: over-expressed from plasmid pET11b, purified (ammonium sulfate, source Q 10/10 column)
# B3: PaFtsZ (FtsZ from Pseudomonas aeruginosa), full length (natural protein, UniProt P47204 1-394, looked up)
# chain: MFELVDNIAQTAVIKVIGVGGGGGNAVNHMAKNNVEGVEFICANTDAQALKNIAARTVLQLGPGVTKGLGAGANPEVGRQAALEDRERISEVLEGADMVFITTGMGGGTGTGAAPIIAEVAKEMGILTVAVVTRPFPFEGRKRMQIADEGIRALAESVDSLITIPNEKLLTILGKDASLLAAFAKADDVLAGAVRGISDIIKRPGMINVDFADVKTVMSEMGMAMMGTGCASGPNRAREATEAAIRNPLLEDVNLQGARGILVNITAGPDLSLGEYSDVGNIIEQFASEHATVKVGTVIDADMRDELHVTVVATGLGARLEKPVKVVDNTVQGSAAQAAAPAQREQQSVNYRDLDRPTVMRNQSHGSAATAAKLNPQDDLDYLDIPAFLRRQAD
# notes: Cell division protein FtsZ, Pseudomonas aeruginosa; also called His6-PaFtsZ; source: expressed from pET15b (NdeI/BamHI), purified (Talon column, thrombin, source Q 10/10 column)
# Legend:
# [1] = biological target: the molecule itself; experiment: negative-stain electron microscopy; FtsZ alone assembled with GTP; 5 uM FtsZ in HMK buffer pH 7.5 (50 mM HEPES, 100 mM KAc, 5 mM MgAc); also 5 and 10 uM FtsZ in MEK buffer pH 6.5 with 1 mM EDTA plus GTP, and 5 uM FtsZ in HMK with 0.5 mM GMPCPP; 2% uranyl acetate
# [2] = biological target: B1; experiment: Trp quenching of ATTO fluorescence; 1 part ATTO-655-labeled FtsZ T151C/Y222W mixed with 9 parts unlabeled wild-type FtsZ; MMK buffer pH 6.5; 25 °C; excitation 650 nm, emission 680 nm; assembly kinetics; details: both partners purified
# [3] = biological target: the molecule itself; experiment: negative-stain electron microscopy; FtsZ alone assembled with 0.5 mM GDP, HMK buffer pH 7.5; 5 uM (and 15 uM for E. coli FtsZ); 2% uranyl acetate
binder,measurement,setting,value
B1,binding result,[1],binds
B2,binding result,[2],binds
B3,binding result,[3],binds
